Assay results reported in the supplement of paper PMC10126150.
± gives the standard deviation of the averaged measurements.

Test system: ATP
Assay: switch fluorescence ratio, 500 uM ATP over buffer (Cy3 cluster intensity, sum of 5 cycles each) (fold (ratio)); higher = stronger signal-on switching upon ATP binding; sequences stand for … in TCGTCGGCAGCGTCAGATGTGTATAAGAGACAGTTTTTTTTTTTTTTTTTTTTTTTTT…TC
Conditions: aptamer strand: ATP DNA aptamer (quencher-CACCTGGGGGAGTATTGCGGAGGAAGG + anchor), 100 nM annealed; ATP concentration: 500 uM
In short: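 The fluorescence ratio divides summed target-cycle Cy3 intensity by summed buffer-cycle Cy3 intensity for each cluster and is averaged per switch-domain sequence. Cy3-labelled switching-strand clusters on a modified Illumina MiSeq flow-cell were annealed to 100 nM quencher-labelled ATP aptamer, then imaged in selection buffer and again after 15 min with 500 uM ATP at 22 °C. Five such cycles were run, with NaOH stripping and re-annealing between them, and clusters outside 100-1000 RFU were excluded.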
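Also: ATP exposure 15 min at 22 °C before imaging.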

| Sequence | switch fluorescence ratio |
| --- | --- |
| CGCTTCGTGA | 1.06 ± 0.059 |
| CGCTTGCCAG | 0.972 ± 0.027 |
| CGCTTTGGCG | 0.959 ± 0.061 |
| CGCTTTGGGT | 0.99 ± 0.018 |
| CGGAAAAAAT | 1.19 ± 0.19 |
| CGGAAAAGGG | 0.993 ± 0.064 |
| CGGAAAATGT | 0.962 ± 0.016 |
| CGGAACATGC | 1.6 ± 0.12 |
| CGGAACCACG | 1.08 ± 0.045 |
| CGGAACGCA | 2.01 ± 0.046 |
| CGGAACGCGA | 4.09 ± 0.093 |
| CGGAAGATTA | 0.9588 ± 0.0045 |
| CGGAAGCATT | 1.44 ± 0.017 |
| CGGAAGGCTT | 0.982 ± 0.0095 |
| CGGAAGTCTT | 0.992 ± 0.024 |
| CGGAAGTTGG | 0.996 ± 0.02 |
| CGGAATGATA | 1 ± 0.018 |
| CGGAATGGTA | 1.08 ± 0.067 |
| CGGAATGTGT | 1 ± 0.015 |
| CGGAATGTTT | 1.05 ± 0.057 |
| CGGACAGGGA | 1.03 ± 0.035 |
| CGGACAGGGT | 0.992 ± 0.013 |
| CGGACCGGAA | 1.011 ± 0.01 |
| CGGACGGGGG | 0.999 ± 0.036 |
| CGGACGTTGG | 0.973 ± 0.045 |

| Sequence | switch fluorescence ratio |
| --- | --- |
| CGGAGAAGGA | 0.98471 ± 0.00067 |
| CGGAGCGGCG | 1.042 ± 0.0095 |
| CGGAGGCAGG | 1.21 ± 0.28 |
| CGGAGGCGTT | 0.986 ± 0.041 |
| CGGAGGGGAA | 1 ± 0.014 |
| CGGAGGGGTA | 1.13 ± 0.16 |
| CGGAGGTAAG | 0.994 ± 0.011 |
| CGGAGTAACG | 1.04 ± 0.03 |
| CGGAGTGAGG | 1.02 ± 0.014 |
| CGGAGTGCGG | 0.983 ± 0.064 |
| CGGAGTGCTT | 1.03 ± 0.021 |
| CGGAGTGGTA | 1.09 ± 0.014 |
| CGGAGTGTGC | 1.23 ± 0.047 |
| CGGAGTTGGA | 1.04 ± 0.041 |
| CGGATCCTTC | 1.02 ± 0.037 |
| CGGATCTCGC | 1.03 ± 0.01 |
| CGGATCTGAA | 1.01 ± 0.016 |
| CGGATCTTGT | 0.961 ± 0.021 |
| CGGATGGCGA | 1.03 ± 0.021 |
| CGGATGTAGC | 1.02 ± 0.063 |
| CGGATGTATA | 0.988 ± 0.014 |
| CGGATGTTGC | 1.03 ± 0.05 |
| CGGATGTTGG | 1.02 ± 0.12 |
| CGGATTCGAT | 1.01 ± 0.011 |
| CGGATTTGGA | 0.976 ± 0.051 |

| Sequence | switch fluorescence ratio |
| --- | --- |
| CGGATTTTTT | 0.995 ± 0.021 |
| CGGCAAATAG | 2.52 ± 0.3 |
| CGGCAAGGCT | 1.22 ± 0.1 |
| CGGCACCACA | 1.08 ± 0.015 |
| CGGCATTAAA | 0.995 ± 0.0058 |
| CGGCCCGCGA | 1.94 ± 0.96 |
| CGGCCTGATA | 1.01 ± 0.028 |
| CGGCCTTACC | 1.334 ± 0.0037 |
| CGGCCTTAGA | 0.985 ± 0.029 |
| CGGCGAAGGG | 0.961 ± 0.014 |
| CGGCGAATCC | 1.033 ± 0.0088 |
| CGGCGAGATA | 1.01 ± 0.029 |
| CGGCGCCTGC | 1.08 ± 0.039 |
| CGGCGCGTAG | 1.05 ± 0.031 |
| CGGCGGCTTC | 1.01 ± 0.028 |
| CGGCGTAAAA | 1.13 ± 0.21 |
| CGGCGTCGGG | 1 ± 0.032 |
| CGGCGTTCCG | 1 ± 0.055 |
| CGGCTACCCG | 0.989 ± 0.049 |
| CGGCTATCTC | 1.381 ± 0.011 |
| CGGCTATTAC | 3.64 ± 1.3 |
| CGGCTCTTTG | 0.985 ± 0.043 |
| CGGCTGGTAC | 1.86 ± 0.027 |
| CGGCTGGTTC | 0.98 ± 0.04 |
| CGGCTGTATG | 0.988 ± 0.035 |

| Sequence | switch fluorescence ratio |
| --- | --- |
| CGGCTTACCC | 1.14 ± 0.2 |
| CGGCTTACGT | 0.993 ± 0.016 |
| CGGCTTGCTG | 1.03 ± 0.018 |
| CGGCTTTATA | 1.02 ± 0.028 |
| CGGCTTTTGT | 1 ± 0.029 |
| CGGGAAGCAC | 1.53 ± 0.34 |
| CGGGACAAGT | 0.982 ± 0.041 |
| CGGGACACGT | 0.9677 ± 0.0063 |
| CGGGACAGGG | 1 ± 0.013 |
| CGGGACGCGT | 1.021 ± 0.0039 |
| CGGGACGGCA | 1.01 ± 0.017 |
| CGGGAGAACC | 0.9981 ± 0.0082 |
| CGGGAGAGAG | 1.03 ± 0.014 |
| CGGGAGGTA | 1.0174 ± 1.4e-06 |
| CGGGAGTGTC | 0.89727 ± 0.00075 |
| CGGGATGCCT | 1 ± 0.021 |
| CGGGATGGCT | 0.996 ± 0.011 |
| CGGGCAGATG | 0.983 ± 0.028 |
| CGGGCCACGC | 1.04 ± 0.019 |
| CGGGCCTATT | 0.98938 ± 0.00074 |
| CGGGCTCCGC | 1.21 ± 0.099 |
| CGGGCTCTGG | 1.02 ± 0.0016 |
| CGGGCTGGGG | 0.993 ± 0.039 |
| CGGGCTTCCT | 1.21 ± 0.22 |
| CGGGCTTGTG | 1 ± 0.011 |
